Data on 1 substance can be found in article PMC3459099.

The target in this assay is ERp57-Cys57Ser–Cys406Ser double mutant (mutated ERp57) (human) (UniProt P30101). The assay is described as follows: ELISA. (In an ELISA, binding on a coated surface is turned into a signal by an enzyme label.)

As for “recombinant N-terminal region of β-DG, β-DG(654–750), biotinylated (domain or fragment)”, the Kd (as a rule, a measure of binding affinity in units of concentration) worked out at 10 µM.
